Assay results as given in patent US20060240001A1 (AGOURON PHARMACEUTICALS, published 2006).

T1: recombinant human E-cadherin (R&D Systems 648-EC-100) (human, UniProt P12830 155-707)
T1 construct: Bought protein
T1 sequence (looked up): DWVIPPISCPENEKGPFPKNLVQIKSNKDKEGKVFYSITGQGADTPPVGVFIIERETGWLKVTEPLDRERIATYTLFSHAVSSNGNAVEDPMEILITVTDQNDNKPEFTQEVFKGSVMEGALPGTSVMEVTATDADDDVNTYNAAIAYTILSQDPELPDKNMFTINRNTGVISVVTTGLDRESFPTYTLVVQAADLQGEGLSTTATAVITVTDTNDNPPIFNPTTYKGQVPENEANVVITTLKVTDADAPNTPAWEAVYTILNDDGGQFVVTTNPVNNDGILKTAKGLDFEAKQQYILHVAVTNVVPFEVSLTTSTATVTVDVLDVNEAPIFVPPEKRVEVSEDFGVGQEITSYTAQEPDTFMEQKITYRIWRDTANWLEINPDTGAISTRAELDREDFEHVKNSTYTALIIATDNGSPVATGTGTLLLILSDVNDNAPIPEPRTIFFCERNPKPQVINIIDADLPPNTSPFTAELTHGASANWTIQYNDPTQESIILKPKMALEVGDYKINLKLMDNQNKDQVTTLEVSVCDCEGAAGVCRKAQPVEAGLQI


What was measured:
[1] = target: T2, human P-cadherin on the surface of cells (human, UniProt P22223 108-829); test: epitope competition on A431 cells; competitor: biotinylated 129-1c4 IgG at 1x KD, DELFIA
T2 construct: whole, on cells; also called native P-cadherin on the surface of A431 cells; SW480 cells stably expressing P-cadherin

[2] = target: T2, human P-cadherin on the surface of cells; test: cell-based or functional assay
[3] = target: T2, human P-cadherin on the surface of cells; test: cell-based or functional assay; remark: listed apart in the source
[4] = target: T2, human P-cadherin on the surface of cells; test: cell-based or functional assay; remark: listed apart in the source
[5] = target: T2, human P-cadherin on the surface of cells; test: cell-based or functional assay; remark: listed apart in the source
[6] = target: T3, Recombinant human P-cadherin Fc (R&D Systems 861-PC-100) (human, UniProt P22223 108-654); test: ELISA on coated antigen, relative KD
T3 construct: also called recombinant human P-cadherin/Fc fusion protein; hCad/Fc; not shown: Fc part of the bought fusion protein

[7] = target: T1, recombinant human E-cadherin (R&D …); test: ELISA on coated antigen, relative KD
[8] = target: T3, Recombinant human P-cadherin Fc (R&D …); test: ELISA; KD on E-cadherin over KD on P-cadherin

Binder	IC50 [1] [nM]	A431 Adhesion Assay Mean IC50 (nM) (n = 3) [2]	A431 Adhesion Assay Mean IC50 (nM) (n = 2) [3]	further results
scFv variant of 129-1c4 with VH CDR3 SEQ ID NO: 37 and VL CDR3 SEQ ID NO: 40 (scFv, V domains shown, His-tagged purified scFv; also called 37 / 40) VH: not shown VL: QSALTQPASVSGSPGQSITISCTGTSNDVGAYNYVSWYQQHPGKAPKLILSEVNKRPSGVSNRFSGSKSGNTASLSISGLQAEDEADYYCSSFTSGLPWVLFGGGTKLTVL	2.49	–	–	–
194-b09 (antibody, V domains shown) VH: not shown VL: QSALTQPASVSGSPGQSITISCTGTSNDVGAYNYVSWYQQHPGKAPKLILSEVNKRPSGVSNRFSGSKSGNTASLSISGLQAEDEADYYCSSFTSGLPWVVFGGGTKLTVL	–	0.229	2.1	–
195-e11 (antibody, V domains shown) VH: not shown VL: QSALTQPASVSGSPGQSITISCTGTSNDVGAYNYVSWYQQHPGKAPKLILSEVNKRPSGVSNRFSGSKSGNTASLSISGLQAEDEADYYCSSFTSGIVFNLFGGGTKLTVL	–	0.114	0.97	–
196-d10 (antibody, V domains shown, Tested as IgG converted from scFv; also called 196-d10 IgG) VH: not shown VL: QSALTQPASVSGSPGQSITISCTGTSNDVGAYNYVSWYQQHPGKAPKLILSEVNKRPSGVSNRFSGSKSGNTASLSISGLQAEDEADYYCTSYTMGSTFMLFGGGTKLTVL	–	0.08	–	SW480 Aggregation Assay Mean IC50 [4]: 1.5 nM; SW480 Spheroid Disruption Assay, Fold Increased Disruption vs Control at 5 nM [5]: 10 fold; Kd [6]: 0.045 nM; Kd [7]: 0.063 nM; KD(E)/KD(P) [8]: 1.4
196-g03 (antibody, V domains shown) VH: not shown VL: QSALTQPASVSGSPGQSITISCTGTSNDVGAYNYVSWYQQHPGKAPKLILSEVNKRPSGVSNRFSGSKSGNTASLSISGLQAEDEADYYCTSYTMGSTFMLFGGGTKLTVL	–	0.149	0.39	–
194-g09 (antibody, V domains shown) VH: not shown VL: QSALTQPASVSGSPGQSITISCTGTSNDVGAYNYVSWYQRHPGKAPKLILSEVNKRPSGVSNRFSGSKSGNTASLSISGLQAEDEAEYYCSSYTMGSTFMLFGGGTKLTVL	–	0.158	0.73	–
200-h06 (antibody, V domains shown) VH: not shown VL: QSALTQPASVSGSPGQSITISCTGTSNDVGAYNYVSWYQQHPGKAPKLILSEVNKRPSGVSNRFSGSKSGNTASLSISGLQAEDEADYYCTSYRMDSTFMLFGGGTKLTVL	–	0.168	0.63	–
scFv variant of 129-1c4 with VH CDR3 SEQ ID NO: 37 and VL CDR3 SEQ ID NO: 288 (scFv, V domains shown, His-tagged purified scFv; also called 37 / 288) VH: not shown VL: QSALTQPASVSGSPGQSITISCTGTSNDVGAYNYVSWYQQHPGKAPKLILSEVNKRPSGVSNRFSGSKSGNTASLSISGLQAEDEADYYCSSFTSAIPWSLFGGGTKLTVL	6.67	–	–	–
scFv variant of 129-1c4 with VH CDR3 SEQ ID NO: 37 and VL CDR3 SEQ ID NO: 277 (scFv, V domains shown, His-tagged purified scFv; also called 37 / 277) VH: not shown VL: QSALTQPASVSGSPGQSITISCTGTSNDVGAYNYVSWYQQHPGKAPKLILSEVNKRPSGVSNRFSGSKSGNTASLSISGLQAEDEADYYCSSFTSGDHWVLFGGGTKLTVL	2.2	–	–	–
scFv variant of 129-1c4 with VH CDR3 SEQ ID NO: 37 and VL CDR3 SEQ ID NO: 297 (scFv, V domains shown, His-tagged purified scFv; also called 37 / 297) VH: not shown VL: QSALTQPASVSGSPGQSITISCTGTSNDVGAYNYVSWYQQHPGKAPKLILSEVNKRPSGVSNRFSGSKSGNTASLSISGLQAEDEADYYCSSFTSSAHFVLFGGGTKLTVL	2.49	–	–	–
scFv variant of 129-1c4 with VH CDR3 SEQ ID NO: 37 and VL CDR3 SEQ ID NO: 261 (scFv, V domains shown, His-tagged purified scFv; also called 37 / 261) VH: not shown VL: QSALTQPASVSGSPGQSITISCTGTSNDVGAYNYVSWYQQHPGKAPKLILSEVNKRPSGVSNRFSGSKSGNTASLSISGLQAEDEADYYCSSFTSQIPWALFGGGTKLTVL	1.78	–	–	–
scFv variant of 129-1c4 with VH CDR3 SEQ ID NO: 37 and VL CDR3 SEQ ID NO: 303 (scFv, V domains shown, His-tagged purified scFv; also called 37 / 303) VH: not shown VL: QSALTQPASVSGSPGQSITISCTGTSNDVGAYNYVSWYQQHPGKAPKLILSEVNKRPSGVSNRFSGSKSGNTASLSISGLQAEDEADYYCSSFTSGRAFNLFGGGTKLTVL	1.47	–	–	–
